The target of assay [1] is T1, MCL1 (Myeloid Cell Leukemia 1) (UniProt Q07820 1-350, limits assumed). Briefly: in vitro interaction assay with Fortilin deletion mutants. From the text:
In vitro pull-down assay. Radiolabeled proteins for use in an in vitro binding assay were generated by a TNT Quick Coupled Transcription/Translation System (Promega, Madison, Wis.) according to the manufacturer's instructions, using [³⁵S]methionine (Amersham-Pharmacia, Piscataway, N.J.) as labeling agent. DNA templates were either circular plasmids or gel-purified PCR products containing a T7 RNA polymerase promoter. The in vitro translated, influenza hemagglutinin-tagged Fortilin (Fortilin-HA) or its mutants and another in vitro translated protein namely, MCL1, Bcl-xL, Bak, Bax or PCNA, were added to Buffer A (50 mM HEPES, pH 7.5, 70 mM KCl, 0.5 mM ATP, 5 mM MgSO₄, 1 mM DTT, 0.001% NP-40, 50 μM MG132, 2 μg/mL BSA, 2 μg/mL aporotinin, 0.5 mM PMSF and protease inhibitor cocktail [Sigma]), and allowed to form complexes at 4° C. for 90 minutes. Fortilin-HA or its mutants were then pulled down with rat anti-HA antibody (Clone 3F10; Roche Molecular Biochemicals, Indianapolis, Ind.) and sheep anti-rat polyclonal antibody conjugated to Dynabeads™ (M480; Dynal USA, Lake Success, N.Y.). Immune complexes were then washed 5 times with Buffer A and once with Buffer B (Buffer A supplemented with 0.01% NP-40). […]

The target of assay [2] is T1, MCL1 (Myeloid Cell Leukemia 1). Kind of assay: in vitro pull-down with anti-HA antibody and Dynabeads, [35S]-labelled proteins. An excerpt: (§1) In vitro pull-down assay. Radiolabeled proteins for use in an in vitro binding assay were generated by a TNT Quick Coupled Transcription/Translation System (Promega, Madison, Wis.) according to the manufacturer's instructions, using [³⁵S]methionine (Amersham-Pharmacia, Piscataway, N.J.) as labeling agent. DNA templates were either circular plasmids or gel-purified PCR products containing a T7 RNA polymerase promoter. The in vitro translated, influenza hemagglutinin-tagged Fortilin (Fortilin-HA) or its mutants and another in vitro translated protein namely, MCL1, Bcl-xL, Bak, Bax or PCNA, were added to Buffer A (50 mM HEPES, pH 7.5, 70 mM KCl, 0.5 mM ATP, 5 mM MgSO₄, 1 mM DTT, 0.001% NP-40, 50 μM MG132, 2 μg/mL BSA, 2 μg/mL aporotinin, 0.5 mM PMSF and protease inhibitor cocktail [Sigma]), and allowed to form complexes at 4° C. for 90 minutes. Fortilin-HA or its mutants were then pulled down with rat anti-HA antibody (Clone 3F10; Roche Molecular Biochemicals, Indianapolis, Ind.) and sheep anti-rat polyclonal antibody conjugated to Dynabeads™ (M480; Dynal USA, Lake Success, N.Y.). Immune complexes were then washed 5 times with Buffer A and once with Buffer B (Buffer A supplemented with 0.01% NP-40). Finally, precipitated proteins were eluted into SDS gel loading buffer (50 mM Tris-Cl, pH 6.8, 100 mM DTT, 2% SDS, 0.1% bromophenol blue, and 10% glycerol), boiled for 5 minutes, subjected to 12% SDS-polyacrylamide gel electrophoresis (SDS-PAGE) and visualized by fluorography and imaging with a phosphoimager system (Bio-Rad, Hercules, Calif.).

The target in assay [3] is T2, PCNA (UniProt P12004 1-261, limits assumed).
T2 construct: In vitro translated, [35S]Met-labelled
T2 sequence (P12004 whole entry): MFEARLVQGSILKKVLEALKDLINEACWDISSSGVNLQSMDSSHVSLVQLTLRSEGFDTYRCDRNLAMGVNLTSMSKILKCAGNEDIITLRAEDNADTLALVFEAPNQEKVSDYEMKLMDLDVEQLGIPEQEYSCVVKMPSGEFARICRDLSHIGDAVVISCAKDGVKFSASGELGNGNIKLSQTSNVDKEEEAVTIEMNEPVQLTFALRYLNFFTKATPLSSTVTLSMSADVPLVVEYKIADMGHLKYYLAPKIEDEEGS
The description is as above.
Source text: as §1

The target of assay [4] is T3, Bax (UniProt Q07812 1-192, limits assumed).
T3 construct: In vitro translated, [35S]Met-labelled
T3 sequence (Q07812 whole entry): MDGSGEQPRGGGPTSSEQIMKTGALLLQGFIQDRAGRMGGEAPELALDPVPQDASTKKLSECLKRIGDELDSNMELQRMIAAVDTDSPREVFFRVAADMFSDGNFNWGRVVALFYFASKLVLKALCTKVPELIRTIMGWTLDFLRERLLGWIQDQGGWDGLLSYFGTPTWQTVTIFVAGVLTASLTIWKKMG
The assay is described as above.
Source text: as §1

For assay [5], the target named is T4, Bak (UniProt Q16611 1-211, limits assumed).
T4 construct: In vitro translated, [35S]Met-labelled
T4 sequence (looked up): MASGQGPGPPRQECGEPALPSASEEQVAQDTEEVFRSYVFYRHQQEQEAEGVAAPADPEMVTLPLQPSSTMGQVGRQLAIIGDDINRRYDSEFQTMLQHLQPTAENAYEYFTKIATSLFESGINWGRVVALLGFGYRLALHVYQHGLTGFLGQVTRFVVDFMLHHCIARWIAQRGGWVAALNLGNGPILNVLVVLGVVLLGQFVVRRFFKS
The assay is described as above.
Source text: as §1

T1 sequence (Q07820 whole entry): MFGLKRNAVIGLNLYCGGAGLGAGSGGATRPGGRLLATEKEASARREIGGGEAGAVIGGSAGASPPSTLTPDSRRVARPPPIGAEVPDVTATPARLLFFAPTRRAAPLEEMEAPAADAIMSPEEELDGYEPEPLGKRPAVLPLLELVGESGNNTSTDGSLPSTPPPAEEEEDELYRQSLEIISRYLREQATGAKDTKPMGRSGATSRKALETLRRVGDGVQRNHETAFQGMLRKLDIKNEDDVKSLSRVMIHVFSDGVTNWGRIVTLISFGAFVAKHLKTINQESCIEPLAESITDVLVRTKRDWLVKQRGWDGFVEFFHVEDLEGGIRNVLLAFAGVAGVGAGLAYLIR

B1: HA-tagged Fortilin deletion mutant, amino acids 46-172 (other, not shown: small tags and cut ends)
chain: SLIGGNASAEGPEGEGTESTVITGVDIVMNHHLQETSFTKEAYKKYIKDYMKSIKGKLEEQRPERVKPFMTGAAEQIKHILANFKNYQFFIGENMNPDGMVALLDYREDGVTPYMIFFKDGLEMEKC
notes: Any added start methionine is not described
As to B1, the binding result in assay [1] was “no binding”.

B2: HA-tagged Fortilin deletion mutant, amino acids 23-172 (other, not shown: small tags and cut ends)
chain: IADGLCLEVEGKMVSRTEGNIDDSLIGGNASAEGPEGEGTESTVITGVDIVMNHHLQETSFTKEAYKKYIKDYMKSIKGKLEEQRPERVKPFMTGAAEQIKHILANFKNYQFFIGENMNPDGMVALLDYREDGVTPYMIFFKDGLEMEKC
notes: as for B1
B2: in assay [1], the binding result is “no binding”.

B3: HA-tagged Fortilin deletion mutant, amino acids 5-172 (other, not shown: small tags and cut ends)
chain: RDLISHDEMFSDIYKIREIADGLCLEVEGKMVSRTEGNIDDSLIGGNASAEGPEGEGTESTVITGVDIVMNHHLQETSFTKEAYKKYIKDYMKSIKGKLEEQRPERVKPFMTGAAEQIKHILANFKNYQFFIGENMNPDGMVALLDYREDGVTPYMIFFKDGLEMEKC
notes: as for B1
As for B3, the binding result in assay [2] was “binds”.

B4: influenza hemagglutinin-tagged Fortilin (Fortilin-HA), full-length, amino acids 1-172 (other, not shown: small tags and cut ends)
chain: MIIYRDLISHDEMFSDIYKIREIADGLCLEVEGKMVSRTEGNIDDSLIGGNASAEGPEGEGTESTVITGVDIVMNHHLQETSFTKEAYKKYIKDYMKSIKGKLEEQRPERVKPFMTGAAEQIKHILANFKNYQFFIGENMNPDGMVALLDYREDGVTPYMIFFKDGLEMEKC
notes: also called wild type Fortilin; wild-type fortilin
Consider B4, for which the binding result in assay [2] is “binds”; in assay [3] it was “no binding”; in assay [4] it was “no binding”; in assay [5], “no binding”.

For the origin of these results see patent publication US20030172388A1 (University of Texas, published 2003).
